Source: patent publication US20020028202A1 (Biogen, published 2002)

Key:
[1] = molecular target: T1, human gc chain (common gamma chain of cytokine receptors) on the cell surface (human, UniProt P31785 23-369); assay: cell-based or functional assay
T1 sequence (looked up): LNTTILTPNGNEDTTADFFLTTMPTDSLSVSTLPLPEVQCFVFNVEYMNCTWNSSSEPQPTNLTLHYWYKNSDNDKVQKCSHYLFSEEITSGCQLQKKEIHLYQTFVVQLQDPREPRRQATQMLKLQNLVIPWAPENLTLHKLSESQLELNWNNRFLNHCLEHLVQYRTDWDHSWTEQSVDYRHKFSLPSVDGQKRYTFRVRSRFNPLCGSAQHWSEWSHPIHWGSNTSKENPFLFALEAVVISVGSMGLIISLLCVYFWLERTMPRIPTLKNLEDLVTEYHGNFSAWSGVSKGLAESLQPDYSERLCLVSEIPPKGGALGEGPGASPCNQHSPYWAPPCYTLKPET

[2] = molecular target: T2, human gc chain mutant, RFL replaced by Ala (Domain 2 Loop BC), myc-tagged, on COS-7 cells (human, UniProt P31785 23-369); assay: staining of transfected COS-7 cells, FACS
T2 construct: whole, on cells; not shown: 9 amino acid myc tag at the 5' end of the construct
T2 sequence (looked up): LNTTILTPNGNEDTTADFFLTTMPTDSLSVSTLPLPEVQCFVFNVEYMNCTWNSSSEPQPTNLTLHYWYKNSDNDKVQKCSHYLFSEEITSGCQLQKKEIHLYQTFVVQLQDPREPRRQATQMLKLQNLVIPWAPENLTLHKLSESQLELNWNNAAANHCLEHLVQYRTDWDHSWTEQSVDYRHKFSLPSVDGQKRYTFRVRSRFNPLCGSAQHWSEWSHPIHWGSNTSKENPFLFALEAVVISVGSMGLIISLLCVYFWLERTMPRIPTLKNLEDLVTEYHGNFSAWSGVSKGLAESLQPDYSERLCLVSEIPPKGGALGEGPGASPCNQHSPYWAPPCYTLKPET
Protocol: (§1) COS-7 cells are transiently transfected with 20 ug of DNA encoding the gc chain mutant or wildtype cDNA and 180 ug of herring sperm carrier DNA. After 2-3 days, COS-7 cells are harvested and analyzed by immnunofluorescent staining with anti-gc chain mAbs. MAbs are used at 10 ug/ml in PBS-1% BSA-0.02% sodium azide and allowed 30 minutes to bind to 1×10⁶ COS-7 cells. Cells are then washed 2 times, and bound mAb is detected with PE-conjugated goat anti-mouse Fc specific antibodies. The % of positive cells staining with the anti-gc chain mAb over an irrelevant control Ig is determined for a given gc chain mutant and for wildtype gc chain. […] Data are adjusted for any differences in level of expression of a mutant vs. wildtype constructs by measuring the binding of a mAb specific for a 9 amino acid myc tag engineered at the 5′ end of each gc chain construct. […] Values reduced from 100% indicate amino acid mutations which affect mAb binding.
(§2) The value “100%” indicates no effect of mutation and lower percentages indicate greater losses in binding as a result of the sequence change.

[3] = molecular target: T3, human gc chain mutant, VIP replaced by Ala (interdomain residues), myc-tagged, on COS-7 cells (human, UniProt P31785 23-369); assay: staining of transfected COS-7 cells, FACS
T3 construct: whole, on cells; not shown: 9 amino acid myc tag at the 5' end of the construct
T3 sequence (looked up): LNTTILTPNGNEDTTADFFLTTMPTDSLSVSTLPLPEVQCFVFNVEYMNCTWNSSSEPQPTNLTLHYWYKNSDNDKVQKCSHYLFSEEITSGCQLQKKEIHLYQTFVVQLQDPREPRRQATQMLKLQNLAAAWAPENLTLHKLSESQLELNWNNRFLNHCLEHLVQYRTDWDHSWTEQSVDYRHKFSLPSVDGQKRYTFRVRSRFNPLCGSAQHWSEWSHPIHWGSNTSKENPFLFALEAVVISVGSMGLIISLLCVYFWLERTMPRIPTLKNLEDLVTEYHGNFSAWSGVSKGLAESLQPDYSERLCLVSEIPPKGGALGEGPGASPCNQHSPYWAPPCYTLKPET
Protocol: as §1, §2

[4] = molecular target: T4, human gc chain mutant, PL replaced by Ala (Domain 2 Loop FQ), myc-tagged, on COS-7 cells (human, UniProt P31785 23-369); assay: staining of transfected COS-7 cells, FACS
T4 construct: whole, on cells; not shown: 9 amino acid myc tag at the 5' end of the construct
T4 sequence (looked up): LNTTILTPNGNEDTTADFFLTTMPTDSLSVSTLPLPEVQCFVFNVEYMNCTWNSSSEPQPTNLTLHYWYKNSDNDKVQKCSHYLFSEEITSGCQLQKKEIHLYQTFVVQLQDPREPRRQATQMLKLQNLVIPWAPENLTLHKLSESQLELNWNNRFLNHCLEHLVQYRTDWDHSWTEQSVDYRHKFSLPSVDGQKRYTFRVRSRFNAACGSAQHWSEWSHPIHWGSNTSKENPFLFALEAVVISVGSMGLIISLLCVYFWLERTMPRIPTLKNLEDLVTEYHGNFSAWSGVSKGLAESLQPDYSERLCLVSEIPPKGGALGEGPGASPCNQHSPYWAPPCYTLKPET
Protocol: as §1, §2

[5] = molecular target: T5, human gc chain mutant, HCL replaced by Ala (Domain 2 Loop BC), myc-tagged, on COS-7 cells (human, UniProt P31785 23-369); assay: staining of transfected COS-7 cells, FACS
T5 construct: whole, on cells; not shown: 9 amino acid myc tag at the 5' end of the construct
T5 sequence (looked up): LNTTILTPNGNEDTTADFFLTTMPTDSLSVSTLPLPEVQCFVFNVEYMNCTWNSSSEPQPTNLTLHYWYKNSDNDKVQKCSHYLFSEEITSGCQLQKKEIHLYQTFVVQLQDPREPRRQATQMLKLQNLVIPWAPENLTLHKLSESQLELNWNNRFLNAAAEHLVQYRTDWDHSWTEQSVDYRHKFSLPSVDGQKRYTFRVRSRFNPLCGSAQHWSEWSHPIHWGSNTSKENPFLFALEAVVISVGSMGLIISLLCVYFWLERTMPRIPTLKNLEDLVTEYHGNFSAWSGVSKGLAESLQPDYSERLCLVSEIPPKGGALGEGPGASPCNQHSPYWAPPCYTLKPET
Protocol: as §1, §2

[6] = molecular target: T6, human gc chain mutant, SAQ replaced by Ala (Domain 2 Loop FQ), myc-tagged, on COS-7 cells (human, UniProt P31785 23-369); assay: staining of transfected COS-7 cells, FACS
T6 construct: whole, on cells; not shown: 9 amino acid myc tag at the 5' end of the construct
T6 sequence (looked up): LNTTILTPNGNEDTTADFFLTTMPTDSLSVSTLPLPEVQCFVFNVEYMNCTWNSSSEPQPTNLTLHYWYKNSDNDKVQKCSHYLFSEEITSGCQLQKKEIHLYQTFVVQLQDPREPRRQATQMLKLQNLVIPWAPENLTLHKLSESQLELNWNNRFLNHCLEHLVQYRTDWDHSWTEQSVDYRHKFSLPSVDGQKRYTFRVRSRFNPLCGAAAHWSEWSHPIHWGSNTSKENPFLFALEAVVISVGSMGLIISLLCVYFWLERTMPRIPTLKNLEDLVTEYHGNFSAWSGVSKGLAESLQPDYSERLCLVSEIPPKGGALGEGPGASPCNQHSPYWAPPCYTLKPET
Protocol: as §1, §2

inhibition of IL-2-induced T cell proliferation, 73 pM IL-2, mAb at 100 ug/ml, relative to MOPC21 [1]: 51% | inhibition of IL-2-induced T cell proliferation, 219 pM IL-2, mAb at 100 ug/ml, relative to MOPC21 [1]: 44% | % binding to mutant gc chain/wildtype gc chain [2]: 89% | % binding to mutant gc chain/wildtype gc chain [3]: 21% | % binding to mutant gc chain/wildtype gc chain [4]: 86% | % binding to mutant gc chain/wildtype gc chain [5]: 8% | % binding to mutant gc chain/wildtype gc chain [6]: 111%
B1: CP.B8 monoclonal antibody (murine anti-human gc chain, hybridoma ATCC HB-12107) (antibody, V domains shown)
VH: LQESGPGLVAPSQSLSITCTVSGFSLTSYGVHWVRQPPGKGLEWLGVIWAGGSTNYNSALMSRLNINRDNSKSQIFLKMNSLQTDDTAIYYCAREGSTVDSMDYWGQGTTVT
VL: DIVMTQSHKFMSTSVGDSITITCKASQDVTTAVAWYQQKPGQSPKLLIYWASTRHTGVPDRFTGSGSGTDYTLTISSVQAEDLALYYCQQHYITPWTFGGGTKLEI
notes: Used unconjugated and biotin-conjugated; also called CP.B8 mAb; mAb CP.B8
